Reference: the supplement of paper PMC10567573
± gives the standard deviation.

Test: protein stability index of a GFP-peptide fusion (GPS, HEK-293T) (PSI 1-6); higher = more stable
Conditions: c terminus: a fixed tail appended
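Further: 24-mer peptide tiles fused after GFP, lentivirally expressed, FACS-sorted into six equal bins by GFP/DsRed ratio, decoded by Illumina sequencing, PSI is the read-weighted mean bin number.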

Row | Sequence | protein stability index (treatment: DMSO) | protein stability index (treatment: MLN4924 1 uM, 8 h)
1 | REWRCCPGHSGVSCEEVAASSASL [EMID1] | 3.74 ± 0.089 | 3.55 ± 0.31
2 | SVLLGASNADQLMENIGAIQVLPK [KCNAB2] | 3.58 ± 0.095 | 3.6 ± 0.24
3 | TEVVRDAVRKLKFARHIKKSEGQK [GULP1] | 3.65 ± 0.37 | 3.85 ± 0.29
4 | GYFFPTSARDCKFTGNFFYNYMMG [DHCR7] | 2.36 ± 0.38 | 2.36 ± 0.21
5 | FVEDSFDPNINPTIGASFMTKTVQ [RAB22A] | 2.97 ± 0.27 | 3.34 ± 0.46
6 | VYHIECFRCSVCSRQLLPGDEFSL [ISL2] | 2.34 ± 0.14 | 2.4 ± 0.23
7 | NLDEEMKKIRQVIRKYNYVAMDTE [CNOT7] | 3.47 ± 0.14 | 3.38 ± 0.22
8 | KVEQAKKPSFQSGGRRRPPASSRN [RBMY1A1] | 4.628 ± 0.025 | 4.73 ± 0.084
9 | EEEENRDSQQPGKRRKDSEEEAAS [FANCE] | 5.78 ± 0.21 | 5.73 ± 0.2
10 | DIMETSGWKSMIQSHPHLVAEAFR [SPOPL] | 2.49 ± 0.37 | 2.68 ± 0.54
11 | SDSAPRNKISRFQAPISAPEYTYG [MFF] | 3.59 ± 0.71 | 3.56 ± 0.21
12 | RKSVRYTRQKKNLPDSPLRFDGLP [TRIM15] | 3.59 ± 0.19 | 3.66 ± 0.12
13 | LFSLNVISLTCVSVAFAVAWFLPM [SLC19A2] | 3.12 ± 0.48 | 2.8 ± 0.23
14 | YLATAKVLITVEDVNDNSPELTIT [PCDHGA10] | 2.49 ± 0.2 | 2.44 ± 0.22
15 | AAGVDHVILAVSYMSQVLEKEMKA [GMPPB] | 2.25 ± 0.62 | 2.44 ± 0.23
16 | PENILLDRDGHIKLTDFGFAKKLV [PRKX] | 2.9 ± 0.17 | 3.08 ± 0.072
17 | KIMADIRAQYDELARKNREELDKY [KRT18] | 3.07 ± 0.15 | 3.19 ± 0.35
18 | PQRYPACAQMLPPNLSPHAPWNYH [TRAF3IP2] | 2.31 ± 0.37 | 2.11 ± 0.25

Row | Sequence | protein stability index (treatment: DMSO) | protein stability index (treatment: MLN4924 1 uM, 8 h)
19 | RYAPLSFRNPMMSKLRNYRKDLAK [VTI1B] | 2.76 ± 0.23 | 2.74 ± 0.18
20 | MVEADHPGKLFIGGLNRETNEKML [RBMY1A1] | 3.91 ± 0.23 | 3.92 ± 0.093
21 | VTDKTLLICKYDFIMLSCVQLQRI [TPRG1] | 3.35 ± 0.84 | 3.48 ± 0.72
22 | NGLNARMMHGGSYSLTTSSTHKRS [RAB40B] | 4.28 ± 0.12 | 4.34 ± 0.19
23 | HCIQQILEAVLHCHQMGVVHRDLK [CAMK2B] | 2.6 ± 0.7 | 2.95 ± 0.37
24 | SVAGWSLFSLNVISLTCVSVAFAV [SLC19A2] | 2.92 ± 0.15 | 3.21 ± 0.27
25 | WEEWQFLSPAQKDLYRDVMLENYS [ZNF649] | 3.48 ± 0.35 | 3.6 ± 0.2
26 | HPIEEAAEEHREKLLKQMRILWKK [TRIM43] | 3.45 ± 0.39 | 3.7 ± 0.58
27 | LYYYMTQTEELKYSIDQEFLKEYF [NLN] | 2.74 ± 0.85 | 2.39 ± 0.62
28 | TIRGEVMFFKDRFYMRTNPFYPEV [MMP1] | 2.2 ± 0.39 | 2.21 ± 0.12
29 | REVEQWFATQTEELNKQVVSSSEQ [KRT33B] | 4.98 ± 0.23 | 4.87 ± 0.17
30 | SLREYNDFLEEVEEIVFNLTNNVD [MNAT1] | 2.6 ± 0.47 | 3.13 ± 0.44
31 | TPAMSSSSSSRVLLRQQLMRAQAQ [TFE3] | 3.65 ± 0.26 | 3.66 ± 0.42
32 | EEQATKQFLEEINKWTVQYNVSPL [PTPN9] | 2.96 ± 0.54 | 3.15 ± 0.43
33 | SSPGPWGLEALAGGDLMPAPADPT [FCHO1] | 4.78 ± 0.4 | 4.65 ± 0.23
34 | PGYLVGRNNANGVDLNRNFPDLNT [CPN1] | 3.73 ± 0.36 | 3.67 ± 0.48
35 | SPSHSPEHRRTARRTPPGQQRPHP [ELOA2] | 5.06 ± 0.18 | 5.06 ± 0.22
36 | PERSDLTLYLIVALATVSLLSLVT [PCDHGC5] | 2.02 ± 0.44 | 2.27 ± 0.56
